Experimental data published in US20230108300A1 (University of Pennsylvania, published 2023).

Molecular target: MART1 clone DMF4 TCR (includes the TCRvβ12 segment) expressed on SupT1 cells
Test: cell-based or functional assay

B1: Vβ12-targeting CAR (construct not specified for the experiment) (other)
VH: EVMLVESGGGLVKPGGSLKLSCAASGFTFRSYAMSWVRQTPEKRLEWVATISSGGSYTNYPDSVKGRFTISRDNAKNTLNLQMNSLRSEDTAMYYCARGYHGYLDVWGAGTTVTVSS
VL: DILLTQSPAFLSVSPGERVSFSCRASQSIGTSIHWYQQRTNGSPRLLIKYASESFSGIPSRFSGSGSGTDFTLSISSVESEDIADYYCQQSYSWPYTFGGGTKLEIK
  lysis of the target cell lines at three E:T ratios: ~100%
